Measurements taken from patent US20190202901A1.

Experiments:
[1] = biological target: recombinant murine IGF-1R protein (R&D Systems, Cat 6630-GR/Fc) (murine) (UniProt Q60751); experiment: direct ELISA, rmIGF-1R coating, antibody at 5 µg/ml
[2] = biological target: recombinant human IGF-1R protein (R&D Systems, Cat 391-GR) (human) (UniProt P08069); experiment: direct ELISA, rhIGF-1R coating, antibody at 5 µg/ml
[3] = biological target: recombinant human IGF-1R protein (R&D Systems, Cat 391-GR) (human) (UniProt P08069); experiment: direct ELISA, rhIGF-1R coated, goat anti-mouse IgG-HRP, TMB, OD 450 nm; Prism sigmoidal dose-response (variable slope) fit
[4] = biological target: recombinant human IGF-1R protein (R&D Systems, Cat 391-GR) (human) (UniProt P08069); experiment: direct ELISA on rhIGF-1R coating, dose response

| OD [1] [OD 450 nm] | OD [2] [OD 450 nm] | BOTTOM (best-fit value) [3] | EC50 [3] [nM] | LOGEC50 [3] | TOP (best-fit value) [3] | EC50 [4] [nM] | Binder |
| --- | --- | --- | --- | --- | --- | --- | --- |
| 0.065 | 2.62 | 0.116 OD (450 nm) | 0.417 | -9.38 log C [M] | 2.44 OD (450 nm) | 0.41 | 816C12 (antibody, V domains shown) VH: EVQLQQSGPELVKPGASVKMSCKASGHTFTSYVLHWMKRKPGQGLEWIGYINPHNDVTKYNENFKGKATLTSDKYSSTVYMEVSSLTSEDSAVYYCVSTAYYGNGRYFDVWGAGTTVTVSS VL: DIQMTQTTSSLSASLGDRVTISCRASQDINNYLNWYQQKPDGTVKLLIYYTSRLHSGVSSRFSGSGSGTDYSLTISNLEQEDIATYFCQQGNTLPWTFGGGTKLEIK |
| 1.29 | 2.14 | 0.0807 OD (450 nm) | 0.513 | -9.29 log C [M] | 2.64 OD (450 nm) | 0.51 | 810D12 (antibody, V domains shown) VH: EVQLQQSGPELVKPGASVKMSCKASGHTFTSYMLHWVKQKPGQGLEWLGFINPYNDVTKYNENFKGKATLTSDKSSSTAYMELNSLTSEDSAVYFCVTTAYYGNGRYFDVWGAGTTVTVSS VL: DIQMTQTTSSLSASLGDRVTISCRASQDITNYLTWYQQKPDGTVKVLIYYTSRLYSGVPSRFSGSGSGSDYSLTINNLEQEDIATYFCQQGYSLPWTFGGGTKLEIK |
